Measurements taken from US20190300590A1 (PROTAGONIST THERAPEUTICS, published 2019).
Bridges are numbered along the chain shown (N, C = ends). [ ]: non-standard residue; d: D form. Phe(3,4-(OMe)2) = COc1ccc(C[C@H](N)C(=O)O)cc1OC; Phe(4-CONH2) = NC(=O)c1ccc(C[C@H](N)C(=O)O)cc1; 1Nal = N[C@@H](Cc1cccc2ccccc12)C(=O)O; 2Nal = N[C@@H](Cc1ccc2ccccc2c1)C(=O)O; AEF = NCCOc1ccc(C[C@H](N)C(=O)O)cc1; Pen = CC(C)(S)[C@H](N)C(=O)O; αMeV = CC(C)[C@](C)(N)C(=O)O; Aib = CC(C)(N)C(=O)O; PEG1 = NCCOCCC(=O)O; Sar = CNCC(=O)O

T1: IL23R_huFC (human, UniProt Q5VWK5 24-353)
T1 sequence (looked up): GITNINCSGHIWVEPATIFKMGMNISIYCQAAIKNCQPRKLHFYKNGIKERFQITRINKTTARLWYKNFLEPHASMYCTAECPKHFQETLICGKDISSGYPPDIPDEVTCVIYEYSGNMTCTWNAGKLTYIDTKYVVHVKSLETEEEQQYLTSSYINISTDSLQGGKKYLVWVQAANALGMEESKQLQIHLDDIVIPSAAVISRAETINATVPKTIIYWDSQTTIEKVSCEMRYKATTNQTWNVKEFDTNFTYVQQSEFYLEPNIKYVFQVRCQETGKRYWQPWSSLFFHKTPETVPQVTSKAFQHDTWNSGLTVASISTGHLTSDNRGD

T2: IL-23R on DB cells (human, UniProt Q5VWK5 24-629)
T2 sequence (looked up): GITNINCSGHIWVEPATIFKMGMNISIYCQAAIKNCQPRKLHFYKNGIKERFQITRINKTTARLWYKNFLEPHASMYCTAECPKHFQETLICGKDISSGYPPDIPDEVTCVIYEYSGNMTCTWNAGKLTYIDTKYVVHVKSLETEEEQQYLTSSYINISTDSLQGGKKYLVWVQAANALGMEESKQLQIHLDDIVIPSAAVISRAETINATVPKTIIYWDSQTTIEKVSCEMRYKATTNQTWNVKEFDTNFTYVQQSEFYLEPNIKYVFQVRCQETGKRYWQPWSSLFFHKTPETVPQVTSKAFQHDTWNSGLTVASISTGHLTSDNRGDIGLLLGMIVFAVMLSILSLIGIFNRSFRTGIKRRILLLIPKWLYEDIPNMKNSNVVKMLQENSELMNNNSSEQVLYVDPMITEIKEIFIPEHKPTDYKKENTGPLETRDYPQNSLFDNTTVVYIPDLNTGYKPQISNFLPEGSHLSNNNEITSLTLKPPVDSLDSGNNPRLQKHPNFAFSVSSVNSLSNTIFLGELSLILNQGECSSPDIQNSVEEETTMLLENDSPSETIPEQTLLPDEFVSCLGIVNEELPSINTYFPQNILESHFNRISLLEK


Each binder was assayed against T1, IL23R_huFC (assay: IL23-IL23R competitive ELISA).

| IC50 [nM] | Binder |
| --- | --- |
| 500 to 1000 | H-CTDWKCYWHEFG-NH2 (disulfide 1-6 (inferred)) [Hy-CTDWKCYWHEFG-NH2] |
| 500 to 1000 | Ac-CRDWVCYWHTFG-NH2 (disulfide 1-6 (inferred)) [Ac-CRDWVCYWHTFG-NH2] |
| 500 to 1000 | H-CRTWTCYWHVYG-NH2 (disulfide 1-6 (inferred)) [Hy-CRTWTCYWHVYG-NH2] |
| 500 to 1000 | H-CPNWECYWHRFG-NH2 (disulfide 1-6 (inferred)) [Hy-CPNWECYWHRFG-NH2] |
| 500 to 1000 | H-CTTWKCYWHQYG-NH2 (disulfide 1-6 (inferred)) [Hy-CTTWKCYWHQYG-NH2] |
| 500 to 1000 | H-CADWMCYWHEYG-NH2 (disulfide 1-6 (inferred)) [Hy-CADWMCYWHEYG-NH2] |
| 500 to 1000 | Ac-DTPRCRTWECYWHTFG-NH2 (disulfide 5-10 (inferred)) [Ac-DTPRCRTWECYWHTFG-NH2] |
| 500 to 1000 | CADWVCYXHTFG ([1-Nal]; -NH2; disulfide) [Hy-CADWVCY-[1-Nal]-HTFG-NH2] |
| 500 to 1000 | Ac-TQFDCRTWECYWHTFG-NH2 (disulfide 5-10 (inferred)) [Ac-TQFDCRTWECYWHTFG-NH2] |
| 500 to 1000 | H-CSDWVCYWHVYG-NH2 (disulfide 1-6 (inferred)) [Hy-CSDWVCYWHVYG-NH2] |
| 500 to 1000 | Ac-[dK]CRDWQCY[1Nal]HTH[Sar][PEG1][dR]-NH2 (disulfide 2-7; SMILES CC(=O)N[C@H](CCCCN)C(=O)N[C@H]1CSSC[C@@H](C(=O)N[C@@H](Cc2ccc(O)cc2)C(=O)N[C@@H](Cc2cccc3ccccc23)C(=O)N[C@@H](Cc2c[nH]cn2)C(=O)N[C@H](C(=O)N[C@@H](Cc2c[nH]cn2)C(=O)N(C)CC(=O)NCCOCCC(=O)N[C@H](CCCNC(=N)N)C(N)=O)[C@@H](C)O)NC(=O)[C@H](CCC(N)=O)NC(=O)[C@H](Cc2c[nH]c3ccccc23)NC(=O)[C@H](CC(=O)O)NC(=O)[C@H](CCCNC(=N)N)NC1=O) [Ac-[(D)Lys]-CRDWQCY-[1-Nal]-HTH-[ Sarc]-[AEP]-(D)Arg]-NH2] |

Continued, binder first:

| Binder | IC50 [nM] |
| --- | --- |
| Ac-GSVHCMTWECYWHTFG-NH2 (disulfide 5-10 (inferred)) [Ac-GSVHCMTWECYWHTFG-NH2] | 500 to 1000 |
| Ac-GGVECNDWQCYWHTFG-NH2 (disulfide 5-10 (inferred)) [Ac-GGVECNDWQCYWHTFG-NH2] | 500 to 1000 |
| Ac-CADWVCYWHEFG-NH2 (disulfide 1-6 (inferred)) [Ac-CADWVCYWHEFG-NH2] | 500 to 1000 |
| Ac-GDHKCSSWECYWHTFG-NH2 (disulfide 5-10 (inferred)) [Ac-GDHKCSSWECYWHTFG-NH2] | 500 to 1000 |
| H-CSNWECYWHHYG-NH2 (disulfide 1-6 (inferred)) [Hy-CSNWECYWHHYG-NH2] | 500 to 1000 |
| Ac-CADWVCYWHFHQLRDA-NH2 (disulfide 1-6 (inferred)) [Ac-CADWVCYWHFHQLRDA-NH2] | 500 to 1000 |
| Ac-CADWVCYWHRSTGGQH-NH2 (disulfide 1-6 (inferred)) [Ac-CADWVCYWHRSTGGQH-NH2] | 500 to 1000 |
| Ac-GGGECENWECYWHTFG-NH2 (disulfide 5-10 (inferred)) [Ac-GGGECENWECYWHTFG-NH2] | 500 to 1000 |
| H-CADWVCYWHTFG-NH2 (disulfide 1-6 (inferred)) [Hy-CADWVCYWHTFG-NH2] | 500 to 1000 |
| Ac-CADWVCYWHEHSERVG-NH2 (disulfide 1-6 (inferred)) [Ac-CADWVCYWHEHSERVG-NH2] | 500 to 1000 |
| Ac-REGTCSTWKCYWHTFG-NH2 (disulfide 5-10 (inferred)) [Ac-REGTCSTWKCYWHTFG-NH2] | 500 to 1000 |
| Ac-CADWVCYWHNHSEGSG-NH2 (disulfide 1-6 (inferred)) [Ac-CADWVCYWHNHSEGSG-NH2] | 500 to 1000 |
| CADWVCYXHTFG ([2-Nal]; -NH2; disulfide) [Hy-CADWVCY-[2-Nal]-HTFG-NH2] | 500 to 1000 |

Each binder was assayed against T2, IL-23R on DB cells (assay: cell-based or functional assay).

| pStat3 HTRF IC50 [nM] | Binder |
| --- | --- |
| < 10 | Ac-[dR][Pen]QTWQ[Pen][AEF][2Nal][Aib]K(Ac)NN-NH2 (disulfide 2-7; SMILES CC(=O)NCCCC[C@H](NC(=O)C(C)(C)NC(=O)[C@H](Cc1ccc2ccccc2c1)NC(=O)[C@H](Cc1ccc(OCCN)cc1)NC(=O)[C@H]1NC(=O)[C@H](CCC(N)=O)NC(=O)[C@H](Cc2c[nH]c3ccccc23)NC(=O)[C@H]([C@@H](C)O)NC(=O)[C@H](CCC(N)=O)NC(=O)[C@@H](NC(=O)[C@@H](CCCNC(=N)N)NC(C)=O)C(C)(C)SSC1(C)C)C(=O)N[C@@H](CC(N)=O)C(=O)N[C@@H](CC(N)=O)C(N)=O) [Ac-(D)Arg-[Pen]-QTWQ-[Pen]-[Phe[4-(2-aminoethoxy)]-[2-Nal]-[Aib]-[Lys(Ac)]-NN-NH2] |
| < 10 | Ac-[dF][Pen]QTWQ[Pen][AEF][2Nal][Aib]K(Ac)NN-NH2 (disulfide 2-7; SMILES CC(=O)NCCCC[C@H](NC(=O)C(C)(C)NC(=O)[C@H](Cc1ccc2ccccc2c1)NC(=O)[C@H](Cc1ccc(OCCN)cc1)NC(=O)[C@H]1NC(=O)[C@H](CCC(N)=O)NC(=O)[C@H](Cc2c[nH]c3ccccc23)NC(=O)[C@H]([C@@H](C)O)NC(=O)[C@H](CCC(N)=O)NC(=O)[C@@H](NC(=O)[C@@H](Cc2ccccc2)NC(C)=O)C(C)(C)SSC1(C)C)C(=O)N[C@@H](CC(N)=O)C(=O)N[C@@H](CC(N)=O)C(N)=O) [Ac-(D)Phe-[Pen]-QTWQ-[Pen]-[Phe[4-(2-aminoethoxy)]-[2-Nal]-[Aib]-[Lys(Ac)]-NN-NH2] |
| < 10 | XXQTWQXFXXKNN (Ac; 2-Nal twice; Pen-Pen disulfide; Phe[4-(2-aminoethoxy)]; Aib; Lys(Ac); NH2) [Ac-[2-Nal]-[Pen]-QTWQ-[Pen]-[Phe[4-(2-aminoethoxy)]-[2-Nal]-[Aib]-[Lys(Ac)]-NN-NH2] |
| < 10 | Ac-[dD][Pen]QTWQ[Pen][AEF][2Nal][Aib]K(Ac)NN-NH2 (disulfide 2-7; SMILES CC(=O)NCCCC[C@H](NC(=O)C(C)(C)NC(=O)[C@H](Cc1ccc2ccccc2c1)NC(=O)[C@H](Cc1ccc(OCCN)cc1)NC(=O)[C@H]1NC(=O)[C@H](CCC(N)=O)NC(=O)[C@H](Cc2c[nH]c3ccccc23)NC(=O)[C@H]([C@@H](C)O)NC(=O)[C@H](CCC(N)=O)NC(=O)[C@@H](NC(=O)[C@@H](CC(=O)O)NC(C)=O)C(C)(C)SSC1(C)C)C(=O)N[C@@H](CC(N)=O)C(=O)N[C@@H](CC(N)=O)C(N)=O) [Ac-(D)Asp-[Pen]-QTWQ-[Pen]-[Phe[4-(2-aminoethoxy)]-[2-Nal]-[Aib]-[Lys(Ac)]-NN-NH2] |

The next lines start with the binder.

| Binder | pStat3 HTRF IC50 [nM] |
| --- | --- |
| Ac-[Pen]QTWQ[Pen][Phe(4-CONH2)][Phe(3,4-(OMe)2)][αMeV]K(Ac)NN-NH2 (disulfide 1-6 (inferred)) [Ac-[Pen]-QTWQ[Pen]-[Phe(4-CONH2)]-[Phe(3,4-OMe2)]-[α-MeVal]-[Lys(Ac)]-NN-NH2] | 10 to 25 |
| Ac-R[Pen]QTWQ[Pen][AEF][2Nal][Aib]K(Ac)NN-NH2 (disulfide 2-7; SMILES CC(=O)NCCCC[C@H](NC(=O)C(C)(C)NC(=O)[C@H](Cc1ccc2ccccc2c1)NC(=O)[C@H](Cc1ccc(OCCN)cc1)NC(=O)[C@H]1NC(=O)[C@H](CCC(N)=O)NC(=O)[C@H](Cc2c[nH]c3ccccc23)NC(=O)[C@H]([C@@H](C)O)NC(=O)[C@H](CCC(N)=O)NC(=O)[C@@H](NC(=O)[C@H](CCCNC(=N)N)NC(C)=O)C(C)(C)SSC1(C)C)C(=O)N[C@@H](CC(N)=O)C(=O)N[C@@H](CC(N)=O)C(N)=O) [Ac-R-[Pen]-QTWQ-[Pen]-[Phe[4-(2-aminoethoxy)]-[2-Nal]-[Aib]-[Lys(Ac)]-NN-NH2] | < 10 |
| Ac-F[Pen]QTWQ[Pen][AEF][2Nal][Aib]K(Ac)NN-NH2 (disulfide 2-7; SMILES CC(=O)NCCCC[C@H](NC(=O)C(C)(C)NC(=O)[C@H](Cc1ccc2ccccc2c1)NC(=O)[C@H](Cc1ccc(OCCN)cc1)NC(=O)[C@H]1NC(=O)[C@H](CCC(N)=O)NC(=O)[C@H](Cc2c[nH]c3ccccc23)NC(=O)[C@H]([C@@H](C)O)NC(=O)[C@H](CCC(N)=O)NC(=O)[C@@H](NC(=O)[C@H](Cc2ccccc2)NC(C)=O)C(C)(C)SSC1(C)C)C(=O)N[C@@H](CC(N)=O)C(=O)N[C@@H](CC(N)=O)C(N)=O) [Ac-Phe-[Pen]-QTWQ-[Pen]-[Phe[4-(2-aminoethoxy)]-[2-Nal]-[Aib]-[Lys(Ac)]-NN-NH2] | < 10 |
